A word on the Km: it is the substrate concentration at which the rate is half of its maximum.

Substrate in this data set: CC(=O)N[C@H]1[C@H]([C@H](O)[C@H](O)CO)O[C@](OP(=O)(O)OC[C@H]2O[C@@H](n3ccc(N)nc3=O)[C@H](O)[C@@H]2O)(C(=O)O)C[C@@H]1O
The data set can be described thus: neoglycoprotein ELISA, product detected with APDye-532 SNA. The class given is biochemical, Homo sapiens. As to conditions: acceptor BSA-LNnT immobilised (250 ng/well), MES pH 6.5, 37 °C, 2 h. The text has this: neoglycoprotein ELISA, product detected with APDye-532 SNA on recombinant human ST6Gal1 | K m of CMP-Sia for the recombinant human ST6Gal1
On the technique in general: An ELISA detects its analyte on a solid surface through an enzyme-linked reagent.

B1: recombinant human ST6Gal1 (Homo sapiens) (protein)
chain: KEKKKGSYYDSFKLQTKEFQVLKSLGKLAMGSDSQSVSSSSTQDPHRGRQTLGSLRGLAKAKPEASFQVWNKDSSSKNLIPRLQKIWKNYLSMNKYKVSYKGPGPGIKFSAEALRCHLRDHVNVSMVEVTDFPFNTSEWEGYLPKESIRTKAGPWGRCAVVSSAGSLKSSQLGREIDDHDAVLRFNGAPTANFQQDVGTKTTIRLMNSQLVTTEKRFLKDSLYNEGILIVWDPSVYHSDIPKWYQNPDYNFFNNYKTYRKLHPNQPFYILKPQMPWELWDILQEISPEEIQPNPPSSGMLGIIIMMTLCDQVDIYEFLPSKRKTDVCYYYQKFFDSACTMGAYHPLLYEKNLVKHLNQGTDEDIYLLGKATLPGFRTIHC
notes: recombinant
For the protein B1, the Km came to 141.4 µM.

For the origin of these results see article PMC12123462, “Novel Click Coupling Chemistry to Explore Glycan Recognition” (ACS Central Science, 2025).
